Positions count from the first letter of the chain named.
B1: 47G1B10 (antibody, V domains shown)
VH: QVQLKQSGPGLVQPSQSLSITCTVSGFSLTTYGVHWVRQSPGKGLEWLGVIWTGGTTDYNAAFISRLSISKDNSKSQVFFKMNSLQANDTAIYYCARGPSSYWGQGTLVTVSA
VL: DIVMTQSQKFMSTSVGDRVSVTCKASQNVDTNVVWYQQKPGQSPKALIHSASYRYSGVPDRFTGSGSGTDFTLTISNVQSEDLAEYFCQQYNNYPWTFGGGTKLEIK
notes: Tested as chimeric antibody
B2: 39D10B2 (antibody, V domains shown)
VH: B1 VH with I92M
VL: B1 VL
notes: Tested as chimeric antibody
B3: 59C12C8 (antibody, V domains shown)
VH: EVQLQQSGAELVRSGASVKLSCTASDFNIEDYYIHWVKQRPEQGLEWIGWIDPENGDTEYAPKFQGKATMTADTSSNTAYLQLSSLTSEDTAVYYCPHGGGFRVFDYWGQGTTLTVSS
VL: DVLMTQTPLSLPVSLGDQASISCRSSQRIVHSNGNTYLEWYLQKPGQSPKLLIYKVSNRFSGVPDRFSGSGSGTDFTLKISRVEAEDLGVYYCFQGSHVPWTFGGGTKLEIK
notes: Tested as chimeric antibody
B4: 109C9D4 (antibody, V domains shown)
VH: EVKLVESGGGLVQPGGSRKLSCAASGFTFSDYGMAWVRQAPGKGPEWVTFISNLAYSIYYADTVTGRFTISRENAKNTLYLEMSSLRSEDTAMYYCARVEENGNYFDYWGQGTTLTVSS
VL: DIQMTQTTSSLSASLGDRVTIRCRASQDIGIYLHWYQQKPDGTVKLLIYYTSRLHSGVPSRFSGSRSGTDYSLTIGNLEQEDIATYFCLQGNTIPPTFGGGTKLEIK
notes: Tested as chimeric antibody
B5: 127A2B9 (antibody, V domains shown)
VH: EVQLQESGPSLVKPSQTLSLTCSVTGDSITSGYWNWIRKLPGNKLEYMGYISYSGSTYYNPSLKSRISITRDTSKNQYYLQLNSVTTEDTATYYCARIYYDYDGYFDVWGAGTTVTVSS
VL: DIVMTQAAPSVPVTPGESVSISCRSSKSLLHSNGNTFLYWFLQRPGQSPQLLIYRMSNLASGVPDRFSGSGSGTAFTLRISRVEAEDVGVYYCMQHLEYPYTFGGGTKLEIK
notes: Tested as chimeric antibody
B6: 290F10G10.p1.Z6 (antibody, V domains shown)
VH: EVQLVQSGAEVKKPGASVKVSCKASGYTFTSYWIHWVRQAPGQGLEWMGTIYPGDADTRSTQKFKDRVTVTADKSTSTVYMELSSLRSEDTAVYYCARSLIHDDYDKYYFDYWGQGTTVTVSS
VL: DIQMTQSPSSLSASVGDRVTITCKARQDINKYIAWYQHKPGKGPKLLIHYTSILQPGIPSRFSGSGSGRDYTFTISSLQPEDIATYYCLQYDYFFTFGGGTKVEIK
B7: 290F10G10.p1.Z7 (antibody, V domains shown)
VH: B6 VH with M48I, R67K, V68A
VL: B6 VL with H38Q, G43A, H49Y, I58V
B8: 290F10G10.p1.Z8 (antibody, V domains shown)
VH: B6 VH with M48I, R67K, V68A
VL: B6 VL with H38Q, G43A
B9: 290F10G10.p1.Z9 (antibody, V domains shown)
VH: B6 VH with M48I, R67K, V68A
VL: B6 VL
B10: 290F10G10.p1.Z10 (antibody, V domains shown)
VH: B6 VH with A97T
VL: B6 VL with H38Q, G43A, H49Y, I58V
B11: 290F10G10.p1.Z11 (antibody, V domains shown)
VH: B6 VH with A97T
VL: B6 VL with H38Q, G43A
B12: 290F10G10.p1.Z12 (antibody, V domains shown)
VH: B6 VH with A97T
VL: B6 VL
B13: 290F10G10.p1.Z13 (antibody, V domains shown)
VH: B6 VH with M48I, R67K, V68A, A97T
VL: B6 VL with H38Q, G43A, H49Y, I58V
B14: 290F10G10.p1.Z14 (antibody, V domains shown)
VH: B6 VH with M48I, R67K, V68A, A97T
VL: B6 VL with H38Q, G43A
B15: 290F10G10.p1.Z15 (antibody, V domains shown)
VH: B6 VH with M48I, R67K, V68A, A97T
VL: B6 VL
B16: 290F10G10.p1.Z16 (antibody, V domains shown)
VH: B6 VH with V2I, Q39E, M48I, R67K, V68A, A97T
VL: B6 VL with H38Q, G43A, H49Y, I58V
B17: 290F10G10.p1.Z17 (antibody, V domains shown)
VH: B6 VH with V2I, Q39E, M48I, R67K, V68A, A97T
VL: B6 VL with H38Q, G43A
B18: 290F10G10.p1.Z18 (antibody, V domains shown)
VH: B6 VH with V2I, Q39E, M48I, R67K, V68A, A97T
VL: B6 VL

Key:
[1] = target: T1, human LIV-1 (human, UniProt Q13433 29-755); experiment: cell-based or functional assay
T1 sequence (looked up): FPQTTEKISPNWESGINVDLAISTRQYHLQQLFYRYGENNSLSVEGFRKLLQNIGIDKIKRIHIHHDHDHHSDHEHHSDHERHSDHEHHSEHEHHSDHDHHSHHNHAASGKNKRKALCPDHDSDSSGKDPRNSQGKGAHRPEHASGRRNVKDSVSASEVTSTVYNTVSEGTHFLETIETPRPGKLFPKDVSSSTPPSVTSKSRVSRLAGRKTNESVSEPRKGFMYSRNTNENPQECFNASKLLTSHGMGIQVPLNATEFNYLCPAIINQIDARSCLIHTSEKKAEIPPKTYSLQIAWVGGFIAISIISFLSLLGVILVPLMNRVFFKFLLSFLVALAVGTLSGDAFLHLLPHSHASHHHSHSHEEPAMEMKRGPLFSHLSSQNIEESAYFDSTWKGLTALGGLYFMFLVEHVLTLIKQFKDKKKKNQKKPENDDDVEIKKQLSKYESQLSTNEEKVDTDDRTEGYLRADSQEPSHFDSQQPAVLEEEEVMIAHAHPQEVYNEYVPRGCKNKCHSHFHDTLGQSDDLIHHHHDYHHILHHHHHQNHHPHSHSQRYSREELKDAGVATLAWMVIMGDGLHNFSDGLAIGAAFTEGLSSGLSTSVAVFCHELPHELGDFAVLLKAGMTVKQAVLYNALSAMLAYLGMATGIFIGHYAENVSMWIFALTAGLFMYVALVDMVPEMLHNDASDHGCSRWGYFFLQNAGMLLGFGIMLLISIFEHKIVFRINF

[2] = target: T1, human LIV-1; experiment: cell-based or functional assay; remark: listed apart in the source
[3] = target: T1, human LIV-1; experiment: cell-based or functional assay; remark: listed apart in the source
[4] = target: T1, human LIV-1; experiment: FACS, HEK293/H_LIV-1 cells
Protocol: (§1) In this example, cell based binding of chimeric Abs on human and cyno LIV-1 over-expressing HEK 293 cells were assessed using flow cytometry.
(§2) Briefly, cells were incubated with chimeric Abs (from 100 nM, 5 folds dilution, 8 points). After incubation at 4° C. for 60 minutes, the cells were washed with 2% FBS/PBS buffer twice, then stained with fluorescent conjugated secondary antibody at 4° C. for 30 minutes. After that the cells were washed twice and resuspended in 80 μL of 2% FBS/PBS buffer. Fluorescent signal of binding was detected using Agilent. The EC50 was calculated using the GraphPad Software (LaJolla, CA).

[5] = target: T2, cynomolgus LIV-1 (cynomolgus, UniProt A0A2K5WH46 30-741); experiment: FACS, HEK293/Cyno_LIV-1 cells
Protocol: as §1, §2

[6] = target: T2, cynomolgus LIV-1; experiment: FACS, cyno LIV-1 cells
Target sequence in this assay (A0A2K5WH46 entry or part of it): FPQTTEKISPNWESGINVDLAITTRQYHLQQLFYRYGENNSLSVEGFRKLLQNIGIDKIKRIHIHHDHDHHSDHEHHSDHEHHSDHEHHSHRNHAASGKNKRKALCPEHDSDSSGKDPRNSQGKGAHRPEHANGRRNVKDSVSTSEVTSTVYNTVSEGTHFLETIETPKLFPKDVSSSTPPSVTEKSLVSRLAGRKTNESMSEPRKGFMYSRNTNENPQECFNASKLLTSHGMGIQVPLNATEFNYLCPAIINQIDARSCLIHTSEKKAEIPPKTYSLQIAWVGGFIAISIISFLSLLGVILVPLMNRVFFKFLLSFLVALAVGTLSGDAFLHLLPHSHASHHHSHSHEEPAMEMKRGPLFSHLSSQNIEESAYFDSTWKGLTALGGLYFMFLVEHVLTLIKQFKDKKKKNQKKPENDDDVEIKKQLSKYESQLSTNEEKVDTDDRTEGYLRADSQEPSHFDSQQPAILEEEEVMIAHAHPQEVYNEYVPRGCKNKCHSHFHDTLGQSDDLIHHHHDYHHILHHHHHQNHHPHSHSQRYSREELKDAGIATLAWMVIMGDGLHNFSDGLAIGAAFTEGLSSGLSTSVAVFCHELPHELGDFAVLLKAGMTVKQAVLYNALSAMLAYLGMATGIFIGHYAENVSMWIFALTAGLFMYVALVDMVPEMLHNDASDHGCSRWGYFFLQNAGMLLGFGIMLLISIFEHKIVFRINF

[7] = target: T1, human LIV-1; experiment: FACS, human LIV-1 cells
Protocol: In this example, cell based binding of humanized antibodies (hu Abs) on human LIV-1-expressing cells were assessed using flow cytometry.
Cell based binding of hu-Abs on human LIV-1 expressing cells were assessed using flow cytometry. Briefly, the HEK293/H_LIV-1 cells were incubated with hu-Abs (from 100 nM, 6 folds dilution, 8 points). After incubation at 4° C. for 60 minutes, the cells were washed with FACS buffer twice, then stained with fluorescent conjugated secondary antibody at 4° C. for 30 minutes. After that the cells were washed twice and analyzed by flow cytometry.

Binder	ADCC reporter EC50 [1] [nM]	ADCC reporter Top (RFU) [1] [RFU]	Internalization EC50 [2] [nM]	Internalization Top (RFU) [2] [RFU]	Cell viability(%) [3] [%]	Cytotoxicity IC50 [3] [nM]	EC50 [4] [nM]	Top (MFI) [4] [MFI]	EC50 [5] [nM]	Top (MFI) [5] [MFI]	EC50 [6] [nM]	Top (MFI) [6] [MFI]	EC50 [7] [nM]	Top (MFI) [7] [MFI]
B1	0.3	191000	10.1	178000	17.7	1.53	0.37	60900	0.3	36700	–	–	–	–
B2	0.2	151000	16.9	171000	16.2	1.54	0.24	61800	0.21	37300	–	–	–	–
B3	1.1	36300	3.9	408000	20.3	0.81	0.1	15100	0.11	8060	–	–	–	–
B4	4.1	101000	4.2	554000	18.5	0.69	0.43	7340	1.33	2340	–	–	–	–
B5	–	–	51.8	558000	17.8	2.25	4.03	34600	3.92	21700	–	–	–	–
B6	–	–	–	–	–	–	–	–	–	–	0.46	6890	0.35	7420
B7	–	–	–	–	–	–	–	–	–	–	0.37	7150	0.28	7680
B8	–	–	–	–	–	–	–	–	–	–	0.36	7190	0.27	7540
B9	–	–	–	–	–	–	–	–	–	–	0.68	7630	0.51	7940
B10	–	–	–	–	–	–	–	–	–	–	0.69	6740	0.49	7290
B11	–	–	–	–	–	–	–	–	–	–	0.32	7410	0.25	7820
B12	–	–	–	–	–	–	–	–	–	–	0.38	7510	0.26	7920
B13	–	–	–	–	–	–	–	–	–	–	0.46	7180	0.32	7630
B14	–	–	–	–	–	–	–	–	–	–	0.48	7220	0.3	7410
B15	–	–	–	–	–	–	–	–	–	–	0.36	7210	0.27	7550
B16	–	–	–	–	–	–	–	–	–	–	0.61	6920	0.43	7440
B17	–	–	–	–	–	–	–	–	–	–	0.51	6820	0.39	7520
B18	–	–	–	–	–	–	–	–	–	–	0.56	7040	0.36	7430
